Assay results taken from the domain aggregation screens of Martell et al. (2025).

Assay: soluble fraction after stress (log2 fold change); higher = more stays soluble; pooled small domains, quantitative proteomics
Details: stress: pH 4
Procedure, shortened: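 Following acid stress at pH 4, the amount of each small protein domain still soluble was measured in pooled custom libraries by high-throughput quantitative proteomics. Its fold change, on a log2 scale, is higher when more of the domain stayed soluble. This fold change is taken as a measure of aggregation propensity.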

Row | Sequence | soluble fraction (log2)
1 | HMGTITKRTNPSGAVVWRAQIRINKADMPTYSESKTFSKKSLATEWLKRREAEIEANPDLIL | ≥ 0.43
2 | HMTQMSVLFSELEAKDAATIADKLRERNIPYELSNNGSTILIPQEVLHDTRLSLASEGLPES | 0.263
3 | HMEGRHFRILYILLNNERVTAPELAEEFGVSVRTIYRDIDTMSAAGIPIYMQGGRKGGIYLLEGY | -1.61
4 | HMVISLREINLIGVYGRPNARRALVRLSNGRYVRVEVGSDLDGGKVTAIGDEALNFVKRGRTYAIQLPA | -0.324
5 | HMVKLSATVKELLDFVIAKKTVTSSNVSKHFDISAQNASGRLKKLHATGLVLGQKEVAESGGLEFVYRS | -0.208
6 | HMSKPTLTDELLTLDLFEEIIKAKENAKGANKRFSLVGFLESKYIVDQEMLPKVNVKVTEYYNLTREN | -1.8
7 | HMDLRIIKTKKAIKTAFLNLLKENKYHNITISAISETALINRKTFYAHYETKDELYADVIEDALRVLSP | -1.04
8 | HMAAKADAVKKAIAAIGKVDASEDSKAKVEAARKAYAALTEDQKKLVEASQLKLLTEAEAAYQQAVEESKK | -0.0736
9 | HMQERKYTVSFNTNGGSTINDQKITSGNVIISPGAPKRSGYTFVGWYYHGQPFDLNTKINQDYVLVAKWIK | 0.207
10 | HMVVYQRVHDEILQALKDNVYPVGTLLPPEPELERIYSVSRTTVRRAIAKLSEEGYVQVRQGYGTMVLKN | 0.22
11 | HMNSDQMKEHLDNLVDMAKKNDNTLIDTEIVNYFVGKPDIELNTDMMTKIFDYLDEHHVAVLS | -1.85
12 | HMLDQSYYETANEIISRYPLEEKSLIPIIQDIQATYRYLPPDLLDYVAKKIGITETKAYSVASFYENFSF | -1.09
13 | HMQYALEDDLDSAIKLLTGKGLSGTVAWGWSDTYINVGKKSYSMEFIAKMLLRLGEGSRVTIQVDPA | -1.28
14 | HMGMSENIDKVAGGIPYKVEGNKAIINEPLDDATKERLMGKAKEHGYHAAPNQAGGITITLK | 0.0104
15 | HMALSETIYRLRTEHGLSQGDLAAELDVSRQSISKWETGSSVPELDKLVAMSRLFGVSLDELVLGE | -0.584
16 | HMGGQEEALNRLVLRELLGTLEKKERDLIVRRYFYDQTQTKIAEALGISQVQVSRMEKRILKKMREGF | -0.833
17 | HMNQNHFLDSVVEFAKDEASRAFFQKAVKKLGEGLVEEAMGEVKMREADGSVNSRAPYFIALLENWMENR | -0.128
18 | HMSLGPNAYGKPATALNILRETVMGKELFDHAFKTYSKRWMFKHPSPEDFFRTMEDASAVDLDWFWR | 0.22
19 | HMKLELSNDFYNKIRLARKENGLTQEDLAEKLNMKVGVIQKIENGVRQTDSNLMKISKFLGVEIYVE | -0.303
20 | HMQTKEVDYGTFMSMIDEKNIGTVEIGDSQIVFTDKDNKNLYETGVMNDPDLAQRLHDAGATFSS | 0.0149
21 | HMLEDYFKEEEYTEVLKIPKEYIKGFQYYLIEDAEFVNALRAKNKTMTLFLAKKLASDYIEIIRREQ | -1.31
22 | HMKPMNNNDILRRLRYTFDLSDDKMMETFALGGYEANRSEISDWLKKDDHPEQKSLYDKSLSHFLNGFIV | -0.085
23 | HMDFNNQLKRIRESNGLTQEQLAKILNVSRQSISSWEVGRNFPDLEMIVIISKEFNISLDQLIMG | -1.03
24 | HMPSTVRVPDVAETSLSEAKKTIEESGLEVGAIHKVNNDTVKKNHVIKTSPTIGSAKKEGSAIDIYVSKG | 0.201
25 | HMKEFIPPVLDDVLKFFSGSLLPDWENQGRLFFSHYNSQGWRKGTGVQVTDWDSLANKWILDEKIKRDARS | -0.214

Row | Sequence | soluble fraction (log2)
26 | HMAWIGEHTVTSEDTLSHIALKFYGHATPPYYKLIYEANKAIIGDNMNIIVPGQVLRIPALPEEL | -0.592
27 | HMKEKPLWAIRITELREEHYFTQTDVSKALGIAQTTYAGYETGRHEPDFETMIKIADIYKVSLDYLIGR | -0.288
28 | HMSTPAKVTPTNPIVKQLFNAAETQIKNKDIQNAIASYEKADTLTTDEKVKQYIHYQLSTLKDDN | 0.0384
29 | HMQSVEELLDAIGDERLLHILLEADRKTLQIVVLKMMGYAPKEIGSHIGMPEQTVYTKLRRLREKIKKI | -1.07
30 | HMRQDEKTLLYWIAGHLKREGRQITERSARHLVEQVGTDMENLSREMEKLIAYTMGRTEITGQDIDDI | -1.21
31 | HMKRELFVEPGMRLEHTPSKTSGPVVSFIEGVIVVIKDQLGSEHRFDPVPGFFRHEGDLVALRSPLL | 0.044
32 | HMVSNFEAEFGRHFAIFFPGSEFTELKLRLLEEGAELIDPIRDTPFERFFFKDPNGYIFEVIDKE | -2.33
33 | HMREKMKGKILDYNFQESRGIISADDGNRYSFENSQWKGTQSPKVNQIVDFEIDGQNAKDIYLDK | 0.0691
34 | HMIDTLEYIISEESKGLRADQAITMVNGEFSRSLIQKWIKKGSILVNGKKIKPRDILNLNDKVTINPEEN | -0.633
35 | HMYVEVPNFIGVPLVKVQSELASLGLVFNKSVVYQTSPYLKGNILDQRPLPGEVVPLNTEMSFTVSSGPA | -0.686
36 | HMHRAKRTKAQTQSSLESIEGIGPKTRKQLLVHFGGLAEVKAASVSELQKVKGISLDKAQKIYDFFHGS | 0.119
37 | HMSPPPRPSHPEAAGLRHLAFEVDNIDDAVRHLDRLGVPHEPVRTDEYTGRRFLFFTDPDRLPLELYEK | -0.572
38 | HMGGPEVLELEDVKVGSPGPDEIKVTNHAIGLNYIDTYHRSGLYPLKLPSGIGLEAAGKVEEIGSNV | -0.511
39 | HMFAERLKELRKMRRFSQHALAERLGISQQAVGKWETGKSTPDPATLREIADIFEVSVDLLLGR | 0.124
40 | HMSLEDNEVIQRMKVILDRFDEETAVDRTTAFKAVLDHIGKMDAESKTLEHMAEMLEALLDKVLEE | -0.371
41 | HMSMEQAKAEEIEKLGDNAPERLQAAALFAEKFFPQDVMDAVYKITETADGVRAIEHIMQTVK | -0.37
42 | HMSLIEQKSQIPLVQGGQRVDKVAAALFTDFSRAELTGWIQQGALTLDGAVVKPKYKVLGGEWLYLRASQS | -0.213
43 | HMVNLKQVELREHHPWVGHKIKELDISRHTLIVMIRRGDNAIVPNGDTLIKSGDIVFVFSKR | -0.839
44 | HMNILKKDKRLWDENNLNKPLLFELLENYDKEIFELLLTDKDIKAKFFVQAGESYVFKYDDFRFAIEQN | -1.75
45 | HMQFAEIPNFSEMALQILRLQADGLSITKIAEALHMNPRTVKYHAQENYRKLQASNKSEALLAARNLNL | -0.418
46 | HMAAELHPYGADSYRGDNPPAGYEIKAKEESKKFHTPSSPWYGRTIAEIWFRTEEAAEAAGFINAVK | -0.272
47 | HMAAEIGSGVVDAYDLRLRSQPSTDAETIIYLDNGAKLSVQEDLGDWYKVVSGTYTGYVSAEYVAYTPSPE | -1.7
48 | HMLDIVVGSTGYALGEITDHSGTVRVNGDTWTARLVDAAGPVEDGDRVEVYAVEGTTLLVYPS | 0.128
49 | HMRTFFEIEQLKAYVGEEIQVKFEADSHKQTVLGKLISISEDFIEIENSKKGNLKISLDNYLTSKLIY | -0.468
50 | HMNFSKEYILVHSYKEIDILDALIVKYEATLVNREFDLFINSYIKINEDYAKLFRDEIISKTSGSMSIKEL | -2.12

Row | Sequence | soluble fraction (log2)
51 | HMRTAKEVFYKELKGYMQNGDELSVKKIYSLFPEINPKTVSWRLHELVQHGKIHRTGHGYYALTQ | 0.0797
52 | HMHDNPLSAQEQRVLDLIAAGKTSKEIASQLFLSDGTVRNYTTSIFNKLNANNRVEAINIAQENGW | 0.123
53 | HMLEPGIAVLKTLMSQYRLGVADLPELGSKSNVSKLLNAVEGKKLTRQHIEALSKRFAVSPALF | 0.114
54 | HMNKYYQQLLQADPTGFIDPFKDLGTYDSRLNTFKEPVSELLNPFSGRPYSKIWQKRIETMREIFISYIKS | -0.213
55 | HMSDIHARIAAALAALTSPEKIHDLVVDDDGKVSFTFHLTREDPATLVRDARKAVQAVDGVRDVKVNVVDP | 0.00539
56 | HMKVQLGMNTREVRGIMGKPFSEDTFVEGEKRVDVLHYKEAVRVKTQGFILTTSLRFENDSLTAI | -1.02
57 | HMFDEDKLIISIGSKVRIIREPYFGTIGKVVELPPELVKMDTEAMLRVAIIKLDDGEKVTIPRANLEVILS | -0.87
58 | HMYDEKTLRKAVLDYVRDNDDGRLDLMKIDSYLTSRYGNIDYAALGYNRLSMFISSFPELRRNSNYVTLRK | -0.158
59 | HMIDLPDIDIDFAKRTGVLEHITHTPARLETGKQHNTGVYFTDIPRGVDGLATMDHKRAEQLGYFKLDML | -0.172
60 | HMKKKVDSENLLLDILKQMQPQASTNVLRKMLTNQRISVDDQIIHRAKHVVQEGQTVEIHPKP | 0.139
61 | HMHLLPAREQVAAYLRKAILRQEIREGTILNLADTARQMGVSVTPVREALQLLAAQGLVRLRPNKGAVVMG | 0.158
62 | HMEPSQEFSLADMVAYDLTGYPKSAALRAAVGASLGIGYGNAKQFVYRLNHYGISKDDFHRAAQEALDGL | 0.057
63 | HMEIFYSARAWAKLNDLVATRTYLQHLGAIAGRIGRSEGLSPDRIPDGRDGAVNGWPLWVWDRAYAEVS | -0.245
64 | HMVQYVDFVKRMIEELPWWHRRMLELKYLDGLTYEEIADELQVPVGTVKGTLHRAKELFQEILKNN | -1.71
65 | HMLDKRSHAKKVLDAIEAVILGRATNDQLAYTINGRSLQKTPLPDLLRLRSQYQAEYQRELRAERIRKG | ≥ 0.43
66 | HMRVVGRNHYDDADLAHIRSVIQLEARPLNVSRIARTLANEYPKHTYWSYLSFLQKNLRDRPDLF | 0.419
67 | HMDLRYKVQYNFIDQGMMTKDELLKFSLNQDDVSKIAVFDNDSKQWKEIYAITEISEKLGIS | -1.57
68 | HMKLVELVGSPKQIAWAEDIRKNMISYLSALVRKYEAENRPARAEKRAKDMEILSNIKEASWFIENRS | 0.155
69 | HMKEQLEAYVNRLFADAALTIRNAEVRQEILQHALDRYDDLIASGKTEQEAYDETVSGIGDVSGLYEHK | -0.526
70 | HMATYDIDALKVDLPSAKELAQFVYDKTDGLVSLDLIGKPKEEQYIVAKNALEGKKVPAEYLTGFNPY | -0.273
71 | HMAPLATLEAGEDGSVKLPNLAGHSIREVAAALGGAKLSLIPIGSGTSWKQTPAPGAVLHSGDTVTVYF | 0.0923
72 | HMNNTVLSSVKSINMFLDANGGDAGQAFRIYNNTNPDSNPTESTYIFKVAEDGNTFVKGYLNLNGTTL | 0.378
73 | HMDSITEADLLRWAHALSGIARTGLGFTESRYERERYEEVLAVAADILAASSRSHDRAALVDEWLKMVGV | -1.55
74 | HMPPDIKVVGVTVASDPRASFAMLSSNGKTLSYRVNDLIEGTEYHLIKVEAAAITIATAGGQSTQIAF | -0.156
75 | HMAPEQWYVLTSGQLPKGPYRLRHIVAMSKGDNWLVARKGAEQWTPLRHLPEFRQAQEANEYIQAIS | -0.122
